Measured values reported in article PMC7240051.

Biological target: BnaA10.ABF2-cYFP (Brassica napus)

Row | dual-luciferase assay in tobacco leaves: activity of pBnaC9.RAB18-LUC with BnaA6.RGA expressed together with BnaA10.ABF2, against the reporter only (BnaA10.ABF2 alone: 3.7 times) [times] | dual-luciferase assay in tobacco leaves: activity of pBnaC9.RAB18-LUC with BnaC7.RGA expressed together with BnaA10.ABF2, against the reporter only (BnaA10.ABF2 alone: 3.7 times) [times] | Substance
1 | 6.5 |  | BnaA6.RGA-nYFP (full length) (natural protein)
2 |  | 11.8 | BnaC7.RGA-nYFP (full length) (natural protein)
